Assay results taken from patent US20180318386A1, “PEPTIDES AND METHODS OF TREATING ENDOMETRIOSIS USING THE SAME” (BIOINCEPT, LLC, priority 2014, published 2018).

Assays:
Assay in all cases: PIF affinity resin pull-down, CD14+ cell lysate, LC-MS/MS count
[1] = target: 14-3-3 protein eta (human) (UniProt Q04917)
[2] = target: 14-3-3 protein gamma (human) (UniProt P61981)
[3] = target: 14-3-3 protein theta (human) (UniProt P27348)
[4] = target: 14-3-3 protein zeta/delta (human) (UniProt P63104)
[5] = target: 78 kDa glucose-regulated protein (human) (UniProt P11021)
[6] = target: Actinin alpha 1 isoform 3 (human) (UniProt P12814)
[7] = target: Bridging integrator 2 (human) (UniProt Q9UBW5)
[8] = target: Calmodulin (human) (UniProt P0DP23)
[9] = target: Coronin-1A (human) (UniProt P31146)
[10] = target: Endoplasmin (human) (UniProt P14625)
[11] = target: Heat shock protein HSP 90-beta (human) (UniProt P08238)
[12] = target: Histone-binding protein RBBP7 (human) (UniProt Q16576)
[13] = target: Hornerin (human) (UniProt Q86YZ3)
[14] = target: Isoform 2 of Heat shock protein HSP 90-alpha (human) (UniProt P07900)
[15] = target: Lymphocyte-specific protein 1 (human) (UniProt P33241)
[16] = target: Matrin-3 (human) (UniProt A8MXP9)
[17] = target: Myosin-9 (human) (UniProt P35579)
[18] = target: Plastin-2 (human) (UniProt P13796)
[19] = target: Talin-1 (human) (UniProt Q9Y490)
[20] = target: Thrombospondin-1 (human) (UniProt P07996)
[21] = target: Transitional endoplasmic reticulum ATPase (human) (UniProt P55072)
[22] = target: Tropomyosin alpha-3 chain (human) (UniProt P06753)
[23] = target: Tubulin alpha-4A chain (human) (UniProt P68366)
[24] = target: Vimentin (human) (UniProt P08670)
Chain of Vimentin (human) (P08670 2-466 limits assumed): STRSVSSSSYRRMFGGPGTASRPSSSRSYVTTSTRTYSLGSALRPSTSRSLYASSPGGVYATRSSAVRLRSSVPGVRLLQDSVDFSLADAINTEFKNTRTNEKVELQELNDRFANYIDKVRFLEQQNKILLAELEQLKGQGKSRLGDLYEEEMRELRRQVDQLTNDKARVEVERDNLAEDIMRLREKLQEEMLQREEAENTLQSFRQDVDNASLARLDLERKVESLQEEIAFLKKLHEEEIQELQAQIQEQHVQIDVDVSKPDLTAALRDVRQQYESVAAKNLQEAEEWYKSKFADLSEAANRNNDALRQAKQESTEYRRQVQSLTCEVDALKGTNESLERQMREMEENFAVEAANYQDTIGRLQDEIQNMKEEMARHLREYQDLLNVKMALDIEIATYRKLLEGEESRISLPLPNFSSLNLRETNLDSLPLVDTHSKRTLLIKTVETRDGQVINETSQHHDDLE

Chain of Bridging integrator 2 (human) (Q9UBW5 whole entry): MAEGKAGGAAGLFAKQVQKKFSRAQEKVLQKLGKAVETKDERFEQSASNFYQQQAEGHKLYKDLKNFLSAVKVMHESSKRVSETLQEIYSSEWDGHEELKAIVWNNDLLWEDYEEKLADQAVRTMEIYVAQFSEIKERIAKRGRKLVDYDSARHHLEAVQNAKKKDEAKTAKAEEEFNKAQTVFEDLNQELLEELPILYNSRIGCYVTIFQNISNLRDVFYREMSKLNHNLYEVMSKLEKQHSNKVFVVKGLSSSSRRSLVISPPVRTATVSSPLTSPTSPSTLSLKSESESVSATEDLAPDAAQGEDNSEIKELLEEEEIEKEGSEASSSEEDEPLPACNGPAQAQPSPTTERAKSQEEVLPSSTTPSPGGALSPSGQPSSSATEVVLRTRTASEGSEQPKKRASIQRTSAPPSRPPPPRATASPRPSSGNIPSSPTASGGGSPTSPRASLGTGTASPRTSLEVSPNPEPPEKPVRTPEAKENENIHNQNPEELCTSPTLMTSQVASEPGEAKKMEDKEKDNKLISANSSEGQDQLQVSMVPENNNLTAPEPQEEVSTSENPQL
Chain of 14-3-3 protein zeta/delta (human) (P63104 whole entry, stated change not applied): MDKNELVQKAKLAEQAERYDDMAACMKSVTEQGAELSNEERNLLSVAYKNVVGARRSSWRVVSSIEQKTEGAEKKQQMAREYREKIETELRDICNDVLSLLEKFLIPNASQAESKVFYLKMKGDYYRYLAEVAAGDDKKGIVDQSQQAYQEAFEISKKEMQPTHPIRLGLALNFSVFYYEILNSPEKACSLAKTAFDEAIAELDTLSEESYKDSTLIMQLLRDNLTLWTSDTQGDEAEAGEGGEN
Chain of 14-3-3 protein eta (human) (Q04917 2-246 limits assumed): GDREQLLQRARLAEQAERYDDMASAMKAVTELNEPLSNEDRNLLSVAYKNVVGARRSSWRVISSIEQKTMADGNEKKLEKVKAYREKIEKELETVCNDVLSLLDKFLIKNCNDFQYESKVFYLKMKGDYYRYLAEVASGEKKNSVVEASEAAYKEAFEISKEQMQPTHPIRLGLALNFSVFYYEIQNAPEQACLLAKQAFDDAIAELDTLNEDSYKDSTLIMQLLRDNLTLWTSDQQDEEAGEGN
Chain of Tubulin alpha-4A chain (human) (P68366 whole entry): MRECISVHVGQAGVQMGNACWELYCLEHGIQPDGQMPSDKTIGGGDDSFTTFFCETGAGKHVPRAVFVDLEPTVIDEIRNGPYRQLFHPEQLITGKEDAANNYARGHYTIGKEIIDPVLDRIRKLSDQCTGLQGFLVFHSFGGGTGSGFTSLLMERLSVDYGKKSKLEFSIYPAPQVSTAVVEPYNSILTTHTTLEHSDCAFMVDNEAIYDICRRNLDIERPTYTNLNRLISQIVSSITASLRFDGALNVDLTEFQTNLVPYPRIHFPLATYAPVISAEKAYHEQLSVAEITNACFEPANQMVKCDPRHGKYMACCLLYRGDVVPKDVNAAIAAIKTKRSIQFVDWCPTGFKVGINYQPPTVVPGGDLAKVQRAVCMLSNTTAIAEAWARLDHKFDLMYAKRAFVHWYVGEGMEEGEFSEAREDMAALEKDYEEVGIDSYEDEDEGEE
Chain of Actinin alpha 1 isoform 3 (human) (P12814 other isoform, or with tags, fused parts or gaps): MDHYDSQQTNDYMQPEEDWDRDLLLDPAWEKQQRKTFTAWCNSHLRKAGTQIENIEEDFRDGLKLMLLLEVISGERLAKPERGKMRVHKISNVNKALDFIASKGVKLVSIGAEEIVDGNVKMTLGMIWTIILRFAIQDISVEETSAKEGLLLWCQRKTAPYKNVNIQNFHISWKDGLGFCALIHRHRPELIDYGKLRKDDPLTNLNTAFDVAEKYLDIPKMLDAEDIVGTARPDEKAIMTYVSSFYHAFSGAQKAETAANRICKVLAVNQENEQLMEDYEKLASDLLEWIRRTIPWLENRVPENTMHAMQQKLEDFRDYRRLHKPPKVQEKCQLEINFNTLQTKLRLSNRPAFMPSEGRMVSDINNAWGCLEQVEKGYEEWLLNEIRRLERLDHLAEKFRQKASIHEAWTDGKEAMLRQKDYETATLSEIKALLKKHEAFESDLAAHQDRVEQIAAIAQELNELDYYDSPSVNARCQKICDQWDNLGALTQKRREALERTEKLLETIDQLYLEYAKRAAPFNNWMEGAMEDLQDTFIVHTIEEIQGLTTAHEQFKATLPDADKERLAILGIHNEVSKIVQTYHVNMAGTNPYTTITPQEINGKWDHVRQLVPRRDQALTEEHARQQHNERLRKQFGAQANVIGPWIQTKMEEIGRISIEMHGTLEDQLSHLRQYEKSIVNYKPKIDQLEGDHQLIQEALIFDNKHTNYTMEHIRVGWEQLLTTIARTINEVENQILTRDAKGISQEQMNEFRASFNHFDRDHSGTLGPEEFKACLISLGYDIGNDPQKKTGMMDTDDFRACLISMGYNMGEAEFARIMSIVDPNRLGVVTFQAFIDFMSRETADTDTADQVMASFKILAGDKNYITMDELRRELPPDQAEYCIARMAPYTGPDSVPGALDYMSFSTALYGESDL
Chain of Heat shock protein HSP 90-beta (human) (P08238 2-724 limits assumed): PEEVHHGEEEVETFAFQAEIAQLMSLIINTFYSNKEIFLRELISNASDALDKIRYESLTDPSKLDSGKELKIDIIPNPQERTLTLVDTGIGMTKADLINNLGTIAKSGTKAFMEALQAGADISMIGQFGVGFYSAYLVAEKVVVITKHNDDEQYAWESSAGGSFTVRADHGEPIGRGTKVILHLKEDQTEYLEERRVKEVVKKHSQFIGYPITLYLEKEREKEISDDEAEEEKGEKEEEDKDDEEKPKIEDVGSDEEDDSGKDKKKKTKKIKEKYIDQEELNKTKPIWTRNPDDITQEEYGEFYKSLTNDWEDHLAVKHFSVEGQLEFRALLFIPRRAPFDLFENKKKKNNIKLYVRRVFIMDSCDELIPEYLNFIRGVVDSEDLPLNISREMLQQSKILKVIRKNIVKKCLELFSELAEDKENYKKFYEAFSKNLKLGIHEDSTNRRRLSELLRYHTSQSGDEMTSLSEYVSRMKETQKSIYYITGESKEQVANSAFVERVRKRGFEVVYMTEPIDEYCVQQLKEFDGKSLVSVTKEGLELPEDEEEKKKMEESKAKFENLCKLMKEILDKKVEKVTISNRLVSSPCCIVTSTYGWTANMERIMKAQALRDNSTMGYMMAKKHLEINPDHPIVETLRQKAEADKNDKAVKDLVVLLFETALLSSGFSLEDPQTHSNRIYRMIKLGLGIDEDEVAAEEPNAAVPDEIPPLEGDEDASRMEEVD
Chain of Thrombospondin-1 (human) (P07996 19-1170 limits assumed): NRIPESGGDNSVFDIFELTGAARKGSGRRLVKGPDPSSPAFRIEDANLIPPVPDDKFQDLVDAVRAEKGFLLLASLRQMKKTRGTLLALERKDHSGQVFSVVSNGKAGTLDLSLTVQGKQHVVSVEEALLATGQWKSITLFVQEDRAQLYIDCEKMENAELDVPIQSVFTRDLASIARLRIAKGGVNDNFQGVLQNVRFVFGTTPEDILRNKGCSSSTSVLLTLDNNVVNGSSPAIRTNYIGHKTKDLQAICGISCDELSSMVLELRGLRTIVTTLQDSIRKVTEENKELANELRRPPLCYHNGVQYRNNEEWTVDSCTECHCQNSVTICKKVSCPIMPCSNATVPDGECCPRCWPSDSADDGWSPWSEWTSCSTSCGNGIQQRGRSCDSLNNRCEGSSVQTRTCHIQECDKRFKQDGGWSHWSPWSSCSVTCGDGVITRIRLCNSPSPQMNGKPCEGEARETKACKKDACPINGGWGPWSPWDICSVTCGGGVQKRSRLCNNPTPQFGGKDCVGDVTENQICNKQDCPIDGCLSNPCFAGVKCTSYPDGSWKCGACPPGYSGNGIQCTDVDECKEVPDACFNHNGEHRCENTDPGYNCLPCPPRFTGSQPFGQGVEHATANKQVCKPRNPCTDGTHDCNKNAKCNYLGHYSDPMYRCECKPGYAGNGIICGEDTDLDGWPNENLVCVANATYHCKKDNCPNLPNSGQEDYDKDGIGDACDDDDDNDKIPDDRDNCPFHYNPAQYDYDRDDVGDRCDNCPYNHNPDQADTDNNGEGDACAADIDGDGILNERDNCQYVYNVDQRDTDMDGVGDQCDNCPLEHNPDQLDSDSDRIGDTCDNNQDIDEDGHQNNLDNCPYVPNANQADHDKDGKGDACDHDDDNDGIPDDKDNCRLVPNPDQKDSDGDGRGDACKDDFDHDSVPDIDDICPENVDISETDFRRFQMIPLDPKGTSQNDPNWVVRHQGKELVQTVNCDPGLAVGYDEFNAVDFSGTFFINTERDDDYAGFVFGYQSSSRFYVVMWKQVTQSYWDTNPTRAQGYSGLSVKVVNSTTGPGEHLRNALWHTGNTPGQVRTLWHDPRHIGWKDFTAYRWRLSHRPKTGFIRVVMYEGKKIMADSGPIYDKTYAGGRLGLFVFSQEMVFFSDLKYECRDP
Chain of 14-3-3 protein theta (human) (P27348 whole entry): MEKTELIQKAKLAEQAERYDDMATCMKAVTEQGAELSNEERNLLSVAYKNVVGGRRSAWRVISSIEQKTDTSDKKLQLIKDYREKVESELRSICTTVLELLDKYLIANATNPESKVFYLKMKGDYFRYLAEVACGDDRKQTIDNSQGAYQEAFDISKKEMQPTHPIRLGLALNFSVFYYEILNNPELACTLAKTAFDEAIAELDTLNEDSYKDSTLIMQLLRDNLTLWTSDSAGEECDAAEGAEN

Substance “PIF15 affinity resin (Cys-C6 spacer-PIF15 conjugated to agarose) (peptide)” has an Ave [1] of 1, an Inject 1 [1] of 1 and an Inject 2 [1] of 1. For the same substance, the Inject 3 [1] was 2, the Ave [2] was 3 and the Inject 1 [2] was 3. For the same substance, the Inject 2 [2] was 3, the Inject 3 [2] was 3 and the Ave [3] was 1. For the same substance, the Inject 1 [3] was 1, the Inject 2 [3] was 1 and the Inject 3 [3] was 2. It also gave an Ave [4] of 4, an Inject 1 [4] of 4 and an Inject 2 [4] of 3. For the same substance, the Inject 3 [4] was 4, the Ave [5] was 4 and the Inject 1 [5] was 6. The Inject 2 [5] was 3, the Inject 3 [5] was 3 and the Ave [6] was 4. For the same substance, the Inject 1 [6] was 5, the Inject 2 [6] was 4 and the Inject 3 [6] was 3. The Ave [7] was 1, the Inject 1 [7] was 1 and the Inject 2 [7] was 2. It also gave an Inject 3 [7] of 0, an Ave [8] of 4 and an Inject 1 [8] of 6. The Inject 2 [8] was 4, the Inject 3 [8] was 3 and the Ave [9] was 2. It also gave an Inject 1 [9] of 2, an Inject 2 [9] of 2 and an Inject 3 [9] of 1. It also gave an Ave [10] of 1, an Inject 1 [10] of 0 and an Inject 2 [10] of 2. The Inject 3 [10] was 1, the Ave [11] was 1 and the Inject 1 [11] was 2. It also gave an Inject 2 [11] of 1, an Inject 3 [11] of 1 and an Ave [12] of 1. The Inject 1 [12] was 2, the Inject 2 [12] was 0 and the Inject 3 [12] was 1. For the same substance, the Ave [13] was 1, the Inject 1 [13] was 1 and the Inject 2 [13] was 0. It also gave an Inject 3 [13] of 2, an Ave [14] of 1 and an Inject 1 [14] of 1. It also gave an Inject 2 [14] of 2, an Inject 3 [14] of 1 and an Ave [15] of 2. It also gave an Inject 1 [15] of 4, an Inject 2 [15] of 2 and an Inject 3 [15] of 1. The Ave [16] was 1, the Inject 1 [16] was 1 and the Inject 2 [16] was 2. The Inject 3 [16] was 1, the Ave [17] was 10 and the Inject 1 [17] was 11. For the same substance, the Inject 2 [17] was 9, the Inject 3 [17] was 10 and the Ave [18] was 1. The Inject 1 [18] was 1, the Inject 2 [18] was 1 and the Inject 3 [18] was 2. The Ave [19] was 6, the Inject 1 [19] was 5 and the Inject 2 [19] was 6. It also gave an Inject 3 [19] of 8, an Ave [20] of 7 and an Inject 1 [20] of 7. For the same substance, the Inject 2 [20] was 5, the Inject 3 [20] was 8 and the Ave [21] was 3. It also gave an Inject 1 [21] of 3, an Inject 2 [21] of 2 and an Inject 3 [21] of 3. It also gave an Ave [22] of 4, an Inject 1 [22] of 4 and an Inject 2 [22] of 2. It also gave an Inject 3 [22] of 5, an Ave [23] of 2 and an Inject 1 [23] of 2. For the same substance, the Inject 2 [23] was 3, the Inject 3 [23] was 1 and the Ave [24] was 10. For the same substance, the Inject 1 [24] was 9, the Inject 2 [24] was 11 and the Inject 3 [24] was 9.
